# Measurements: a protein production outcome set (Wang et al. 2014)
# Assay: label from the status in PepcDB records
# 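Note: failed if final PepcDB status was selected cloned or expressed and not failed if soluble or beyond.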
row,Sequence,protein production
1,MHGIDLHTHSNISDGTLSPSCLVDAAIACGIHTLALTDHDTMDGLETAIQQAQGHDIQIISGAEISSQWSRPNTKKAYGVHIVALNMQNPEPLLDALVIQKNIRAERAQQICQILQQCTGQDIYTDVLLKVEGEPDRITRTHIAKALVEKEIVARPQQAFDRFLKEGKRAYVKFDGLNLADTIRIIHESEGFAILAHPTRYDLSSTNVRYLIELFAKMGGDAVELPPSVDPVSTRQMIDRIIQQFDLKVSIGSDFHG,failed
2,MHGLLPALKRGFKRWIGWRRLGIAASVFIIAFAITTLVRTLKGIDTGVILTALTEIPRGNIGLAAICVFFAFCTLTFYDFFALRTIGKKHVPYRIAALSSFTSYSIGHNIGATVFTGGAIRFRIYSDYGLNAIDVAKICFLSGLTFWLGNIFVLSIGMAVHPDAASSMDQLPSSINRLIALGGLASIGAYLVWLCMGEKRRELGQKGWKVVLPSAPLTLVQILIGVVDLGFCATAMYLLIPATPPIDFLSLAVVFILATLLGFASHAPGSIGVFDAAMLVALPEFGREQLLATLLVFRLLYFVIPFGLAISIMGTRELWMNVVEPWQERRRLAEACAQANLPKQVAAMERERSLRQASKR,failed
3,MHIHILGICGTFMGGIAAIARNAGHTVTGCDANVYPPMSDQLRALGIELTEGWDAGQVRLEPDAFVVGNVVTRGNPLMEAILERGLPYTSGPQWLADNVLRDKWVLAVAGTHGKTTTSAMLAWILEDARLHPGFLVGGIPQNFGLSARLTDSPFFVIEADEYDTAFFDKRSKFVHYRPRTAILNNLEFDHADIFPDIQAIETQFHHLVRTIPGNGLIVANGREAALDRVLERGLWTPVERFGSIGGWTAGEADASGSFDVHFNSALQGRVRWELIGEHNRMNALAAIAAARHAGVPAAAAIDALSRFENVKRRMEIRGAVHGITVYDDFAHHPTAITTTVQGLRAKVGNARILAVLEPRSNTMKLGVMKDALPASLAGADEVYCYGANLGWDAAEALAPLGEKARVFDNLDKLVAQLVADGRPGDHVLMMSNGGFGGIHAKLLDALHHHYHEEIVLTPMHRYGGYA,failed
4,MHIRRDQYMNEYVWETCEELDKKIADRVRLIRKRRSISQEKLSKISNVSLGSIKRFETTGQISLLSLTKIAVALNIADDLRNIFTEIPYNSIEEVINERR,not failed
5,MHKFIVIFVTLLISISVQTLAADLEIEEIELRETPQKMYDRLNQSISFPISFKNREQFERAAQEQGYSPDEFEHILQLLARLNLEPNVKTKVEFQDANSLIELLTSIAQTPLEQATVAMLKGRYIGRTEQKYQEAIAFYNQALSHINDSVDLGSMLLKHTIHEHLGLLHLVIRQDVPALMHFHTYRDIAYKLRNDYLIAAAESKLGHYYNKNQQLTKSLQHYSEAVRLSNRSNYPSMKTHLQLQLAKVYRDLKQWDEALKNAHEAAAGFKKLGNDTYLSSCMTVIAMVYGEQGDWNRAIDYYLNAQQLDAKRGNYIAQGLNFHNLGQAYSHLNDNVNALKYLLMANKIFTDKQSHHYLVYNELLIGEIAQSKQDWTLMMSHAEHALALASNLALLDEQKSALTQIALSAEKMQDQAKVISTQKRIIELNNTSKNTAKDPAVAASVLAEQQLKLELNMVQGKLNDAIESAKETNKLLALSGVILTLLVIAIIALLNQRQKSRRQNESLLQLTLEEPFTHHKGYAALLRDLGPNTPHTRTTALALIEFRDHLMTDLNHGQYFANAITCQLASHISNSLFMPVYVIRQGLFAVRFTETVDPQQALTQLQQQLDKNAFTAIFNLGFINLPLLTKTEINIAPKLLFETVQMALAGARSLPSNTCHYVSLRALDFVPPTLFADPLFLHLEKGIERGLIRVETNAMKEDIVWPCWENNQNRHLLGNI,failed
6,MHKTAFIWTDEYYNYSFPDYHPFKSLRESMTKRLLEERGAFHFITLVEPKSIPEEALQLVHSKEYIEFVKYKSKEGQGYLDDGDTPAFKGIYEAALIRVSGSVKALELIKSGEFNHTINIGGGFHHAKRNRAAGFCVFNDVALISKLGESFFSRIAIVDIDGHHADGTQELLIDDNNILKISLHMFHPNFFPGTGDVNEIGLGKGEGYTINIPLPPGTGDDGYLLAFDEIVVPAIERYKPELIILVAGGDSHFNDPLVELKLSTHGYLDVVTKIHRLVHEYSNGRLIMLGGGGYNYDATARIWTISIAEIAGIYDLEYETLHDSFSTKSSQFVMEKIRNTISLIKKIHSLN,failed
7,MHKVLVPFDGSEHAMRALGYVIELSGDLNKPLEVHVLNVQASPIDYSLYLAPDMIDGVKAGLKNEGKRVLDDAIALLAAAGVPFQAHVDLGNVAEQVEAEVQRLGCDAVVMGTRGLGNFGGLLLGSVATRVIHEVSVPVTLIK,failed
8,MHKVVIVGRPNVGKSSLFNRLLKKRSAVVADVPGVTRDLKEGVVETDRGRFLLVDTGGLWSGDKWEKKIQEKVDRALEDAEVVLFAVDGRAELTQADYEVAEYLRRKGKPVILVATKVDDPKHELYLGPLYGLGFGDPIPTSSEHARGLEELLEAIWERLPVRQIETEPEVAGIRLAIVGRPNAGKSSLLNAILGEERVIVSEEPGTTRDAIDVEFFFGGQRFVLVDTAGIRKRPENLVEELAIRRSLRAMDEADVVLLVVDPFQVGDRELKLANEALDRGKPVLLVITKWDLVDKEDAPKMRRLLREKLAHLDHLPRVFTSALTRQNLDRIFREAVRLHELNQTRVPTAELNRWVAVWTSRVQMPNFKGKPLKILYATQPEVAPPTFVFFVNHPEFVTRAFENYLKNRIGEDLGLREVPFRLVFRGRREE,not failed
9,MHLKKIWAVIYAVMLAAFSTFVLLDAFVIPKDRIKADEPIQSQEITDESIEAKAEAVITENSYKDDKISITISELREYDTSIYVADIQLADASYLRAGLADGTFGRNVTEVTSQIAQDSNAILAINGDFYGFRNKGYVMRNGYLYRETAQQGRQGNSRQEDLVIYEDGHMDVIEENEVAAQTLKDSGASQIFSFGPGLIKNGNITVDENSEVEQSMQSNPRTAIGMITPLHYIMAVSDGRTEASEGLTLYQLAQIMKGQDCVTAYNLDGGGSSTMWFNGEVVNKPTSYGSKISERAVSDIVYIGR,failed
10,MHLNNLNNFNNLENNGEYHCSGPIIKKPFRHIALTVPSSDITNFNEIFYVEPQYIAQAIRLTNTFQGAIDPLTLNFNFEKALQIANGLPNAGVTGTINQSVIHQTIEVSVMISQIKEIIRSVLGLVINSANFWNSVVSAITNTFTNLEPQVDENWIVWRNLSATQTSYFYKILFSIQNEDTGRFMAILPIAFEITVDVQKQQLLFITIKDSARYEVKMKALTVVQALDSYNAPIIDVFNVRNYSLHRPNHNILQNLNVNPIKS,not failed
11,MHLPHFALSSVLSLTLCAIPNLGFASSNQTEDSTQARPTWLRDIALSPDGQKIAFTYAGQIWLVPAQGGDAVALTESGVYSETPIWSPDSQSIAFTADRYGLGDVFILSIQGGESRRLTYHGAKDIPYAFSADGQQLYFSSRRLGDDKANANVKQGSFMAQLYSVPAAGGREQRVLPIAISDLAISPSHSDILYTNQPSDEQPWRKGALSDATRDIWQWSPLTGKHTQITTFRGEDRNPVWSADGSSMYYLSEQAGSFNVWQQRFDGSEPVQITDHQKLPVRFLSASLQGDLAYGFDGEIWRLKAGAKQAEKVPVSIRRSAMPDGRHNVNFNLEATEMVVAPNAAEVAIVARGDVYVVSLLSGLTQRITDTPEAERDVSFSSDGYRLIYASEREGSWNLYQSYVNDGGKSFSSSLDIIEEPVLTTEQDVIQPLYSPNLKRIVYRENRNTLKVYDIEQDKTYTLLDAHALYSYFDKDLSYQWSPDSEYIVTRDRAMSNGDIQLLKFDGSEAPINLSQSGFSEFAPQFSADGQWVYWLTDAKGLRDIDDMVVQYDVYGVALNREAKFNFNKTQEQLWLEEEIAAEKNLGPGQNPPAELTVVENKGLKQRTMRMTPTSLNIIFKHLTHDNQALIIAYQLGDSVQISEINLRSGEMTALFNRLSEDAALLAMASDDASLLIMGEHGIENLNVLTGESKFVRYEAKANFDFRAEIRLLV,failed
12,MHLSLLVPFLFWITGCCTAEDPVTGPEEVSGQEQGSLTVQCRYTSGWKDYKKYWCQGVPQRSCKTLVETDASEQLVKKNRVSIRDNQRDFIFTVTMEDLRMSDAGIYWCGITKGGLDPMFKVTVNIGPAIQVPITVPTMPPITSTTTIFTVTTTVKETSMFPTLTSYYSDNGHGGGDSGGGEDGVGDGFLDLSVLLPVISAVLLLLLLVASLFAWRMVRRQKKAAGPPSEQAQSLEGDLCYADLSLKQPRTSPGSSWKKGSSMSSSGKDHQEEVEYVTMAPFPREEVSYAALTLAGLGQEPTYGNTGCPITHVPRTGLEEETTEYSSIRRPLPAAMP,not failed
13,MHNFLIIGAFISLGILLRRFKALPEHTPFVLNKIAINVCLPALILLNAPKIAFTRDAVTAAIIPWALLALSVGLVLLGAKIWQWPRPVVGVLLLIVPLGNTSFLGVPIIRTFFGADGLPHLIVYDQIGTMMIFATYGSFILSLYGQDGTLSVSAVVRKMLLFPPSLALAAGLALKSWSYPDGLSLALHYLALPLVPVVMTAIGLQLRLRLPPHLAAPVGIGLGIKMLAAPLAVLVACRLVDMNGLAVGVSVVEAGMPPMVTAGALAVVAGMEAELAIALVGIGILCSFGSLPALFWLVSL,failed
14,MHPASFDDHIFRLLIEAVDDYAIYIIDAQGHILTWNNGAERNTGYNADEIIGQSFELFYTPEDLATQLPAKGLLHANQLGHYENQGWRVRKNGKRFWGHITLSALHDSEHNLQGFVQVTRDLTD,failed
15,MHQPHLSAEEKQHSHDHLSLDLIEAQYQLKNSAGKKNAKSVLVLVSGIELAGKGESVKQLREWVDPRYLRVKADPPQLLTTNQTFWQPYSSFIPAEGQIVVLFGNWYSDLLTTAMHVSKPLDETLFDAYVNSMRAFEQDLKNNHVDVVKVWFDLSWKSLQKRLDHIDASERQWHKLHGLDWRSKKQYETLQKLRQRFTPDWVFIDGEDEALRDREFAECILKALKDVPDHVQQADAAWTQSVVPQALLQPSSEVLEKAKYKKKLKKLTRRVADALRYDQRNVIVVFEGMDAAGKGGSIKRIVKRLDPREYDIFTISAPEKYELRHPYLWRFWTKLQNCSDIRIFDRSWYGRVLVERVEAFASDIEWQRAYDEINRFEKDLTDSQTVIVKIWLSISKEEQEKRFEAREKTPHKRFKITEDDWRNRAKWDEYLNAAADMFEHTSTDCAPWTIIATDDKPTARIKMLKAILKQLKSK,failed
16,MHQSVIDPQGLIDLKILIVIALCLLFSPHIAKILRLPLSATEIILGAIIAYFGFIGKSENFALLANVGFYYLMFIAGMEVNLRAFFNMDKEIAKKSFFYIFLLYALSSLIVWIFGLSLVFVIIIPVMSVGLLSLLFKDFGKECYWLNIAMIVATLAEVISIVLLTIAGAFLREGTGIIDVAQSILYLNIFLGLCLLGFKMLGVLFWWYPQLKVVLMPWEDKNEKDIRFCMAIFILIIVAMVITKLEIVLGSFIAGSFIATFFDHKKDLEHKLSTFGHGFLIPIFFIHIGSTFDLKMILDYKIVLQAFLLMFVMVGLRILCASVFLKRIGFKNMILFGLSHSMPLTLLIATATLGYSGKVIDEKLYSALILTALFEAIIVMSMIKFLSNSKK,failed
17,MHREQAPEHRDRTSEHRDRTPERRDRTPEPPGRASGPAAPAPASEPPGTDLGWLLEDLVARTDHVRQAVLLTADGLPLSASDGMRARDIEHLAAVCSGFHSLARSAGERFAAGDVRQTMVMLDDAYLFITPAGDGSRLAVLSEVQTDVGQLAHEMALLVRRVGRHMDAAVRSAVHSAGS,failed
18,MHRKPICAALAIISAATLTTSLAYGMTAVELPAGAPADKPVGKLEQVQAFYDAMPTGVTVTETGRIFVNFPRWGDKVPFTVGEVRDGKVVAYPDLAVNHENPKDPGDGLISVQSVVADGKGRVWLLDTAAPEFAAPRPQGAKLVAVDLATNKIVKRLVFPDNVILPSTYVNDMRFDFRQGSQGTVYVTDSSVSGPGAIIVMDIASGHAVRRLSGAKATSADPAFVPVVEGVPVLGDGPDGTRKPVHVAADGIALSADGKTLYFSPLSSRHLYSVATELLNDSAVNEQQLAAAVQDLGEKGASDGLEADADGAVYAGDYEHNAIRKRLPNGVWQTVAHDPRMLWPDTLSIGPDGYLYFIVNQLHRQAGFNSGHDQRKKPYSLLRVKVATAPAPTH,failed
